Data from patent US20240254224A1 (UCB, published 2024).

Tests used:
Test in all cases: SPR (Biacore T200), TREM1 ECD over antibody captured by anti-human Fc
[1] = target: T1, pig TREM1 ECD (in house, His tagged) (pig, UniProt Q6TYI6 21-210)
T1 construct: extracellular domain
T1 sequence (looked up): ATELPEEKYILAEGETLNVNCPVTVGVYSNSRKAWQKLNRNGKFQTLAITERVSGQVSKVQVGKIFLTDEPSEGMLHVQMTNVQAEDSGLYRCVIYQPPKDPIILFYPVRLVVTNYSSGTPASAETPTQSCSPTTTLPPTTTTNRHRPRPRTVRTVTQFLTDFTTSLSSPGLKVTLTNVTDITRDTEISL
Method: (§1) The species tested were human, cynomolgus, rhesus, marmoset, rat, mouse, dog and pig.
(§2) TREM1 ECD analyte (in house, His tagged) was injected at 3-fold serial dilutions in HBS-EP+ running buffer (GE Healthcare), top concentrations are shown in Table 15, and three-fold serial dilutions were performed to a bottom concentration of 2 nM. Buffer blank injections were included to subtract instrument noise and drift.

[2] = target: T2, marmoset TREM1 ECD (in house, His tagged) (marmoset, UniProt A0A8I3WDM5 21-206)
T2 construct: extracellular domain
T2 sequence: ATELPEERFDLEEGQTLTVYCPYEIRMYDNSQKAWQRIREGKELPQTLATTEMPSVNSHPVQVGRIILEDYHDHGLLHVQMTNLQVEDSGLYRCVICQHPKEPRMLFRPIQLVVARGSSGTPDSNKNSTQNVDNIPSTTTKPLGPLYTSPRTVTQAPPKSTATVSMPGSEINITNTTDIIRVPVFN
Method: as §1, §2

[3] = target: T3, mouse TREM1 ECD (in house, His tagged) (mouse, UniProt Q9JKE2 21-202)
T3 construct: extracellular domain
T3 sequence (looked up): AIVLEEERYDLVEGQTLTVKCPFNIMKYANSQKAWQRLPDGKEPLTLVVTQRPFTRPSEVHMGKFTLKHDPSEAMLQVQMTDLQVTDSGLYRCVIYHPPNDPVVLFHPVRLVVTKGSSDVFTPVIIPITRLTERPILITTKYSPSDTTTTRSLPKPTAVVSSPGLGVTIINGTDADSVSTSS
Method: as §1, §2

B1: 12172 gL2gH11 hIgG4P (antibody)
heavy: not shown
light: DIQLTQSPSFLSASVGDRVTITCQASQNIGSDLAWYQQKPGKAPKLLIYKAATLASGVPSRFSGSGSGTEFTLTISSLQPEDFATYYCQQYYYGSAGADTDTFGGGTKVEIKRTVAAPSVFIFPPSDEQLKSGTASVVCLLNNFYPREAKVQWKVDNALQSGNSQESVTEQDSKDSTYSLSSTLTLSKADYEKHKVYACEVTHQGLSSPVTKSFNRGEC
notes: Humanised IgG4P, human kappa; also called 12172gL2gH11 IgG4P
[1]
  binding result: no binding (tested: 490 nM)
[2]
  binding result: no binding (tested: 510 nM)
[3]
  binding result: no binding (tested: 520 nM)
